Patent publication US10925971B2, “Methods of treating PRLR positive breast cancer” (Regeneron Pharmaceuticals, Inc., priority 2016, dated 2021)

T1: native PRLR expressing T47D cells (Homo sapiens, UniProt P16471)
T1 construct: a native PRLR expressing cell line (T47D); endogenous in cells; host or cells: T47D
T1 sequence (P16471 25-622): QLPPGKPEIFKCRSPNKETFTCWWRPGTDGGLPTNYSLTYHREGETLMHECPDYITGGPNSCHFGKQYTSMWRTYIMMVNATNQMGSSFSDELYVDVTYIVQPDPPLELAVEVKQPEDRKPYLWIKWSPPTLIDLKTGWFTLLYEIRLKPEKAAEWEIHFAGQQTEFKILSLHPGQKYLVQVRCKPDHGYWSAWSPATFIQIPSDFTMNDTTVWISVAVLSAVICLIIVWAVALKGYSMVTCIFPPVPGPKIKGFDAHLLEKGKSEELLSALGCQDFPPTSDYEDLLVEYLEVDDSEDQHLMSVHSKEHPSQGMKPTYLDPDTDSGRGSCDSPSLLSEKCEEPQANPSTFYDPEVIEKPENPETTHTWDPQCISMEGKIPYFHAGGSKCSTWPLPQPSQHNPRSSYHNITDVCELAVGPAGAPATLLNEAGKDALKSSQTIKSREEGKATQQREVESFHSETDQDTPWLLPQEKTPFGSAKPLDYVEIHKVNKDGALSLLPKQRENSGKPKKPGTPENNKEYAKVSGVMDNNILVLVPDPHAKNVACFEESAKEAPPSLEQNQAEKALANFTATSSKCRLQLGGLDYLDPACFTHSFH

T2: monkey PRLR on HEK293/mfPRLR cells (Macaca fascicularis, UniProt A0A2K5WXK1)
T2 construct: HA; expressed in transfected cells; host or cells: HEK293
T2 sequence (A0A2K5WXK1 25-619): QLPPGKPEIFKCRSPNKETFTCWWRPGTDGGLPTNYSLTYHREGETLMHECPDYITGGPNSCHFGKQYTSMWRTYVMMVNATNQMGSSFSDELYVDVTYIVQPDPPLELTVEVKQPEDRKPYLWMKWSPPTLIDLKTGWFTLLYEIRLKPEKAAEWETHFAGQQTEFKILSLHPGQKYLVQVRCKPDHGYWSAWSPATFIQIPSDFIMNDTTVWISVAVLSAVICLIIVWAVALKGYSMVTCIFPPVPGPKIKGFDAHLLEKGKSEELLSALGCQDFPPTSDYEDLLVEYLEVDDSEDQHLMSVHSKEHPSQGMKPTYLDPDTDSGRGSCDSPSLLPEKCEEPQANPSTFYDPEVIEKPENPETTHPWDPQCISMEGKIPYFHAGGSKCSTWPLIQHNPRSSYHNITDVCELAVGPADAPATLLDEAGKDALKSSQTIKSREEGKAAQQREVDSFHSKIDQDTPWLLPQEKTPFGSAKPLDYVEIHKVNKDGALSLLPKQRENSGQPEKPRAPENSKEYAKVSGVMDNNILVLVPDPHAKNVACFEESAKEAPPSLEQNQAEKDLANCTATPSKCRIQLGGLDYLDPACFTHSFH

T3: human PRLR on HEK293/hPRLR cells (Homo sapiens, UniProt P16471)
T3 construct: HA; expressed in transfected cells; host or cells: HEK293
T3 sequence (P16471 25-622): T1 sequence (P16471 25-622)

T4: mouse PRLR on HEK293/mPRLR cells (Mus musculus, UniProt Q08501)
T4 construct: HA; expressed in transfected cells; host or cells: HEK293
T4 sequence (Q08501 20-608): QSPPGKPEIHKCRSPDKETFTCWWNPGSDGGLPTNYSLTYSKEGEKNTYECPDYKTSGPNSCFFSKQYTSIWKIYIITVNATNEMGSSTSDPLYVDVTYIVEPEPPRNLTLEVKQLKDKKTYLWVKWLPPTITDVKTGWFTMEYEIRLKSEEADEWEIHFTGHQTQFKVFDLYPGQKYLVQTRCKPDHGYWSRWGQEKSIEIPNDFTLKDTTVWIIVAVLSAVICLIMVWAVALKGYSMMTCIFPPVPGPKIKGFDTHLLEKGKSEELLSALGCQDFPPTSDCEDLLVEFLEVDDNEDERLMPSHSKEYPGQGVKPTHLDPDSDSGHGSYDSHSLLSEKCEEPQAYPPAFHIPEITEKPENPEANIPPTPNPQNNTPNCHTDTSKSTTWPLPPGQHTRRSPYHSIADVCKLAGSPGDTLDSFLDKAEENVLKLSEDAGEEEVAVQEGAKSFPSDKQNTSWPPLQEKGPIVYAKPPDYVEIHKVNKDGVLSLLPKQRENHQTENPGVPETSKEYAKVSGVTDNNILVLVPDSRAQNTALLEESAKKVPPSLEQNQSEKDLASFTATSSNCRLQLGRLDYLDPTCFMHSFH

B1: H1H6804P: fully human anti-PRLR antibody, human IgG1 Fc; HCVR/LCVR SEQ ID NOs 242/250 (antibody, V domains shown)
VH: QVTLKESGPVLVKPTQTLSLTCTVSGFSLSDAGMGVSWIRQPPGKALEWLAHIFSNDGKSYSTSLKSRLTISKDTSKRQVVLTMTNMDPVDTATYYCARIRTGTYSLYLDYWGQGTLVTVSS
VL: DIQMTQSPSSLSASVGDRVTITCRASQSINSYLNWYQQKPGKAPKLLLYFASSLQSGVPSRFSGSGSGTDFTLTISSLQPEDFASYYCQESYSTPWTFGQGTKVEIK
B2: H1H6800P: fully human anti-PRLR antibody, human IgG1 Fc; HCVR/LCVR SEQ ID NOs 194/202 (antibody, V domains shown)
VH: EVQLVESGGGLVQPGRSLRLSCAASGFTFDGYAMHWVRQGPGKGLEWVSGISWYSDTLGYADSVKGRFTISRDNAKNSLYLQMNSLRTEDTAFYYCAKISSSGWAFDYWGQGTLVTVSS
VL: EIVLTQSPGTLSLSPGERATLSCRASHSVSSAYLAWYQQKPGQTPRLLIYGTSSRATGIPDRFSGSGSGTDFTLTISRLEPEDFAVYYCQQYGSSPLFTFGPGTKVDIK
B3: H1H6801P: fully human anti-PRLR antibody, human IgG1 Fc; HCVR/LCVR SEQ ID NOs 210/218 (antibody, V domains shown)
VH: QVQLQQSGPGLVKPSQTLSLTCVISGDSVSSNTAWNWVRQSPSRGLEWLGRTYYRSKWYNDYAVSVKSRITINPDTSKNQFSLLMNSVTPEDTAVYYCARVVRGLNYFDYWGQGTLVTVSS
VL: DIVMTQSPDSLAVSLGERATINCKSSQSVLYNSNNKNYLAWYQQKPGQPPKLLIYWSSSRESGVPDRFSGSGSGTDFTLTISGLQAEDVAIYYCQQYSTIPYTFGQGTKLEIK
B4: H1H6803P: fully human anti-PRLR antibody, human IgG1 Fc; HCVR/LCVR SEQ ID NOs 226/234 (antibody, V domains shown)
VH: EVQLVESGGGVVRPGGSLRLSCAASGFKFDDYGMTWVRHVPGKGLEWVSGINWNGGRTGYTDSVKGRFTISRDNAKNSLYLQMNSLRAEDTALYHCAGARRDAFDIWGQGTMVTVSS
VL: DIQMTQSPSSLSASIGDRVTITCRASQNIIKYLNWYQQNAGKAPKLLIYTASSLQSGVPSRFSGSGSGTDFTLTISSLQPEDFATYYCQQSSSSPYTFGQGTKLEIK

These molecules were tested on HEK293 parental cells (assay: FACS cell surface binding). Settings: not given.
Parameters: species or system human
How it was run: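 Values are mean fluorescence intensity relative to an isotype control (background). Antibodies at 10 μg/ml were incubated on ice for 30 min with HEK293 lines stably overexpressing HA-tagged species PRLR or with parental cells. A PE-conjugated anti-human secondary was used for detection.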

| Molecule | FACS Cell Binding |
| --- | --- |
| B1 | 1 Fold Above Background |
| B2 | 1 Fold Above Background |
| B3 | 7 Fold Above Background |
| B4 | 1 Fold Above Background |

These molecules were tested against T1, native PRLR expressing T47D cells (assay: FACS cell surface binding). Settings: not given.
How it was run: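 Flow cytometry on native PRLR-expressing T47D cells, alongside PRLR-overexpressing and parental HEK293 lines. Cells (1×10^5) incubated with antibody at 10 μg/ml, 30 min on ice, then PE anti-human secondary; binding reported as MFI fold over isotype control.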

| FACS Cell Binding | Molecule |
| --- | --- |
| 34 Fold Above Background | B1 |
| 41 Fold Above Background | B2 |
| 45 Fold Above Background | B3 |
| 39 Fold Above Background | B4 |

These molecules were tested against T2, monkey PRLR on HEK293/mfPRLR cells (assay: FACS cell surface binding). Settings: not given.
How it was run: (§1)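 HEK293 cells stably transfected with HA-tagged human, cynomolgus or mouse PRLR (G418-selected), or parental HEK293, were stained with 10 μg/ml antibody for 30 min on ice. Binding was then detected with 10 μg/ml PE anti-human secondary for 30 min on ice, and MFI was expressed as fold over isotype control.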

| FACS Cell Binding | Molecule |
| --- | --- |
| 29 Fold Above Background | B1 |
| 29 Fold Above Background | B2 |
| 88 Fold Above Background | B3 |
| 28 Fold Above Background | B4 |

These molecules were tested against T3, human PRLR on HEK293/hPRLR cells (assay: FACS cell surface binding). Settings: not given.
How it was run: as §1

| FACS Cell Binding | Molecule |
| --- | --- |
| 1 Fold Above Background | B1 |
| 35 Fold Above Background | B2 |
| 47 Fold Above Background | B3 |
| 39 Fold Above Background | B4 |

These molecules were tested against T4, mouse PRLR on HEK293/mPRLR cells (assay: FACS cell surface binding). Settings: not given.
How it was run: as §1

| FACS Cell Binding | Molecule |
| --- | --- |
| 1 Fold Above Background | B1 |
| 1 Fold Above Background | B2 |
| 56 Fold Above Background | B3 |
| 1 Fold Above Background | B4 |

Each molecule was assayed against T5, monomeric human PRLR (hPRLR.mmh; SEQ ID NO:401) (Homo sapiens, UniProt P16471) (assay: Surface plasmon resonance (Biacore T200), antibody-capture format). Settings: 25° C., analyte hPRLR.mmh.
T5 construct: soluble monomeric (hPRLR.mmh); mmh (myc-myc-hexahistidine) (C)
Assay type: binding
How it was run: (§2)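 Antibodies (human IgG1 Fc) captured on an anti-human Fc sensor surface; soluble monomeric (.mmh) or dimeric (.mFc) PRLR injected as analyte. ka and kd obtained by fitting to a 1:1 binding model.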

T5 sequence (P16471 with tags, fused parts or gaps): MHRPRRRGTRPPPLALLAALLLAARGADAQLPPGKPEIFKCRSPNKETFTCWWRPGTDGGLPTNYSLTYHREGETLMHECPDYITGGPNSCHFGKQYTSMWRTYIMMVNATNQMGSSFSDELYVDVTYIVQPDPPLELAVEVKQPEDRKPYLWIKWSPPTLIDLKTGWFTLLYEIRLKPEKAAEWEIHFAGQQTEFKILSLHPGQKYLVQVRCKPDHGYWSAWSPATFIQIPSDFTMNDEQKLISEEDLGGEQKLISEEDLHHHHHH

| ka | kd | Molecule |
| --- | --- | --- |
| 453000 M/s | 0.000634 s⁻¹ | B1 |
| 421000 M/s | 0.000409 s⁻¹ | B2 |
| 846000 M/s | 0.000756 s⁻¹ | B3 |
| 82400 M/s | 0.000137 s⁻¹ | B4 |

Same assay, conditions: 37° C., analyte hPRLR.mmh

| ka | kd | Molecule |
| --- | --- | --- |
| 607000 M/s | 0.00385 s⁻¹ | B1 |
| 808000 M/s | 0.00119 s⁻¹ | B2 |
| 951000 M/s | 0.00441 s⁻¹ | B3 |
| 129000 M/s | 0.000364 s⁻¹ | B4 |

What follows are molecules tested on Macaca fascicularis PRLR (mfPRLR.mmh; SEQ ID NO:403) in the same assay as above. Settings: 25° C., analyte mfPRLR.mmh.
Assay type: binding
How it was run: as §2

Sequence of Macaca fascicularis PRLR (mfPRLR.mmh; SEQ ID NO:403) (as listed by the source): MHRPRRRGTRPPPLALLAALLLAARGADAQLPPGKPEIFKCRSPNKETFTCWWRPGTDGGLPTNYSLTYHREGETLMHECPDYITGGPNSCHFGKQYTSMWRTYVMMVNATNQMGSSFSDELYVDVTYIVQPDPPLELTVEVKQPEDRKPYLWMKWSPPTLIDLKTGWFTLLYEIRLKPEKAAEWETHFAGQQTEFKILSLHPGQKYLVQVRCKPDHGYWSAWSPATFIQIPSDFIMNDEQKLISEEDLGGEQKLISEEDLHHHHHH

| kd | Molecule | ka |
| --- | --- | --- |
| 0.000657 s⁻¹ | B1 | 331000 M/s |
| 0.00038 s⁻¹ | B2 | 303000 M/s |
| 0.00123 s⁻¹ | B3 | 657000 M/s |
| 0.000209 s⁻¹ | B4 | 62100 M/s |

Same assay, conditions: 37° C., analyte mfPRLR.mmh

| kd | Molecule | ka |
| --- | --- | --- |
| 0.00426 s⁻¹ | B1 | 455000 M/s |
| 0.00109 s⁻¹ | B2 | 439000 M/s |
| 0.00771 s⁻¹ | B3 | 711000 M/s |
| 0.000636 s⁻¹ | B4 | 87300 M/s |

Each molecule was assayed against T6, dimeric human PRLR (hPRLR.mFc; SEQ ID NO:402) (Homo sapiens, UniProt P16471) in the same assay as above. Settings: 25° C., analyte hPRLR.mFc.
T6 construct: dimeric (hPRLR.mFc)
Assay type: binding
How it was run: as §2

T6 sequence (P16471 with tags, fused parts or gaps): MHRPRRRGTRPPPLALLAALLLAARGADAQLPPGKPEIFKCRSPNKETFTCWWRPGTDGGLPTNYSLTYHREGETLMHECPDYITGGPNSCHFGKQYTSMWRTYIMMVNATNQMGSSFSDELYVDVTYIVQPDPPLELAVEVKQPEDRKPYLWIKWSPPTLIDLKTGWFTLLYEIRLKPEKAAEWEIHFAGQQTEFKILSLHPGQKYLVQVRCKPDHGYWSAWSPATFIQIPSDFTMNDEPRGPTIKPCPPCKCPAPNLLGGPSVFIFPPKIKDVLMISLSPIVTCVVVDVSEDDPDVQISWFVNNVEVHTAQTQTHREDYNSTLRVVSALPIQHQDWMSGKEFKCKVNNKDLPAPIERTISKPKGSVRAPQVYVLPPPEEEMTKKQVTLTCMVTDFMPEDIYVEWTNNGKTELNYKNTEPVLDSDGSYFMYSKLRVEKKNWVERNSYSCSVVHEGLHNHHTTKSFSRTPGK

| ka | kd | Molecule |
| --- | --- | --- |
| 451000 M/s | 8.69e-05 s⁻¹ | B1 |
| 473000 M/s | 8.69e-05 s⁻¹ | B2 |
| 675000 M/s | 0.000109 s⁻¹ | B3 |
| 104000 M/s | 6.29e-05 s⁻¹ | B4 |

Same assay, conditions: 37° C., analyte hPRLR.mFc

| ka | kd | Molecule |
| --- | --- | --- |
| 554000 M/s | 0.000205 s⁻¹ | B1 |
| 644000 M/s | 0.000147 s⁻¹ | B2 |
| 793000 M/s | 0.000221 s⁻¹ | B3 |
| 134000 M/s | 6.2e-05 s⁻¹ | B4 |
